Substitutions are numbered along the chain they refer to. In names and notes the source's numbering stands. Values belong to the binder of their own block, whether it stands above or below them.
How the values were obtained:
Conditions in all cases: both partners purified
[1] = target: T1, fluorescein-labeled Tpx2^1–43 polypeptide (UniProt Q9ULW0 1-43, fluorescein (FITC) label, position not stated); experiment: fluorescence polarisation; direct binding: 5 nM FITC-Tpx2^1–43 with increasing AURKA; 25 mM HEPES pH 7.5, 50 mM NaCl, 10 mM MgCl2, 0.1 mg/mL BSA, 0.01% Brij, 3 mM ADP, 2 mM DTT
T1 construct: Tpx2 (Targeting Protein for Xenopus kinesin-like protein 2), first 43 residues; also called FITC-Tpx2^1–43; source: synthetic peptide (Proteogenix)
T1 peptide (looked up): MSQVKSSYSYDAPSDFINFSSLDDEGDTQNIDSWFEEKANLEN

[2] = target: T2, Full-length human AURKA^WT (Aurora A kinase) (human, UniProt O14965 1-403, phosphothreonine at T288 (T-loop; 'WT phosphorylated')); experiment: SPR; biotinylated AVI-Bora^1–224 or AVI-pBora^1–224 immobilised on a streptavidin chip (Biacore S200), AURKA flowed over; 25 °C; 25 mM HEPES pH 7.5, 150 mM NaCl, 20 mM MgCl2, 1 mM TCEP, 0.01% Brij 35; flow 10 µL/min; mean of n = 2; the paper says the affinities appear under-estimated
T2 construct: non-native residues left at the N-terminus after TEV digestion of the 6xHis-GST fusion; Aurora A kinase (AURKA), human, full length; also called AURA^WT; WT phosphorylated; source: E. coli BL21 DE3 pLyS RIL, purified (glutathione sepharose, TEV cleavage, HiTrap SP, Superdex 200); not shown: 6xHis, N-terminal, cleaved; GST, N-terminal, cleaved
T2 sequence: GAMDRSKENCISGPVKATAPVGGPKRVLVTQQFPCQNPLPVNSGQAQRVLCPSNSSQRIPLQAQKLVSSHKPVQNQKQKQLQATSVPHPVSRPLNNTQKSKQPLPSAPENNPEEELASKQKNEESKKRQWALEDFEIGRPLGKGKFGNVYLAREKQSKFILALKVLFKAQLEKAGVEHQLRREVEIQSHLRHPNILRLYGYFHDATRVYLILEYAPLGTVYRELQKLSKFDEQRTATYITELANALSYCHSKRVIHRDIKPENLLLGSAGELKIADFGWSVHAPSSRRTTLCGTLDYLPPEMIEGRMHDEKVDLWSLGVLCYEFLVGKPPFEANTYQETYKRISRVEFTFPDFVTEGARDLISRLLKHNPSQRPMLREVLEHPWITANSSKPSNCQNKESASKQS

[3] = target: T3, Full-length human AURKA^T288V (human, UniProt O14965 1-403, T288V); experiment: as above
T3 construct: non-native residues left at the N-terminus after TEV digestion of the 6xHis-GST fusion; Aurora A kinase (AURKA), human, full length, T288V; Lacks T-loop phosphorylation; MW 45935.52 in the SPR methods; also called AURKA T-loop mutant (T288V); source: E. coli BL21 DE3 pLyS RIL, purified (glutathione sepharose, TEV cleavage, HiTrap SP, Superdex 200); not shown: 6xHis, N-terminal, cleaved; GST, …
T3 sequence: T2 sequence with T290V

[4] = target: T4, Full-length human AURKA^T288V (human, UniProt O14965 1-403, T288V, not phosphorylated: 0P by intact mass (Supplementary Fig. S3a)); experiment: fluorescence polarisation; competitive displacement: FITC-Tpx2^1–43 (5 nM) and AURKA (35 nM) kept constant, unlabeled competitor varied; 25 mM HEPES pH 7.5, 50 mM NaCl, 10 mM MgCl2, 0.1 mg/mL BSA, 0.01% Brij, 3 mM ADP, 2 mM DTT
T4 construct: non-native residues left at the N-terminus after TEV digestion; Aurora A kinase (AURKA), human, full length, T-loop mutant T288V; source: E. coli BL21 DE3 pLysS RIL, purified (glutathione sepharose, TEV cleavage, HiTrap SP, Superdex 200); not shown: 6xHis, N-terminal, cleaved; GST, N-terminal, cleaved
T4 sequence: T2 sequence with T290V

Kd [2]: ~52 µM
Kd [3]: 11 µM
B2: biotinylated AVI-tagged Bora^1–224 (domain or fragment)
chain: not shown
modifications: biotin (on the AVI tag, by BirA)
notes: source: E. coli BL21 DE3 pLyS RIL, purified, biotinylated in vitro with 6xHis-BirA and re-purified (Superdex 200); not shown: AVI, N-terminal, kept; 6xHis, N-terminal, cleaved

Kd [2]: ~18 µM
Kd [3]: 6 µM
B3: biotinylated AVI-tagged pBora^1–224 (phosphorylated by CyclinA2-Cdk2) (domain or fragment)
chain: not shown
modifications: biotin (on the AVI tag, by BirA); phosphorylated by CyclinA2-Cdk2 (average of eight phosphorylations)
notes: As m9, phosphorylated; MW 27440 calculated from an average of eight phosphorylations; not shown: AVI, N-terminal, kept; 6xHis, N-terminal, cleaved

The next lines start with the binder.

B1: AURKA^([T288V R255A]) (enzyme, human)
chain: T2 sequence with R257A, T290V
notes: non-native residues left at the N-terminus after TEV digestion of the 6xHis-GST fusion; Aurora A kinase (AURKA), human, full length, T288V R255A; source: E. coli BL21 DE3 pLyS RIL, purified (glutathione sepharose, TEV cleavage, HiTrap SP, Superdex 200); not shown: 6xHis, N-terminal, cleaved; GST, N-terminal, cleaved
fold reduced binding against the other AURKA^T288V mutants [1]: 3 fold

B4: pBora^(18–120 [S27A T52A]) (domain or fragment)
chain: not shown
modifications: phosphorylated; with ERK 2P and 3P by intact mass, 2 phosphorylations expected (S41, S112) (Supplementary Fig. S6e)
notes: non-native residues left at the N-terminus after TEV digestion; Bora, human, residues 18-120 with S27A and T52A; source: E. coli BL21 DE3 pLysS RIL, purified, then phosphorylated in vitro; not shown: 6xHis, N-terminal, cleaved
IC50 [4]: 0.68 µM
